According to US20080286287A1 (MURDOCH CHILDRENS RESEARCH INSTITUTE, published 2008):

Key:
[1] = molecular target: T1, Human-IGF-I (human, UniProt P05019 49-118); test: competitive radioligand binding in solution (125I-IGF-I vs unlabeled IGF-I), immunoprecipitation with anti-IGFBP-2, one-site fit
T1 construct: also called IGF-1
From the text: (§1) Table 4 tabulates data showing the effect of mutagenesis on the affinity of IGFBP-2 for the IGFs. The HBD, ₁₇₉PKKLRP₁₈₄, was mutated to ₁₇₉PNNLAP₁₈₄ and the ₂₆₅RGD₂₆₇ domain was mutated to ₂₆₅RGE₂₆₇. Native and mutant IGFBP-2 were purified by IGF-I affinity chromatography and quantified by an IGFBP-2 ELISA or radioimmuno assay (RIA) as described in the Examples. IGF binding affinities of the modified IGFBP-2 mutants were similar to those of native IGFBP-2.
(§2) The impact of these exemplary mutations in IGFBP-2 were tested to see if they affected IGF binding affinity. Native, HBD and RGD-IGFBP-2 (all 2.5 ng) were incubated with either ¹²⁵I-IGF-I or -II (15,000 cpm) in the presence of increasing concentrations of unlabeled IGF-I or -II (0.0025-0.15 nM). Binding was for 2 h at room temperature in 100 μl binding buffer [BB; 50 mM sodium phosphate pH 7.4, 0.1 M NaCl, 0.05% (w/v) NaN3, 0.2% fatty acid free BSA (Sigma, Steinheim, Germany), 0.1% (v/v) Triton X-100]. […] Bound radioactivity in precipitates was quantified in a γ-counter. Each point was measured in quadruplicate. […]

[2] = molecular target: T2, IGF-II (UniProt P01344 25-91); test: competitive radioligand binding in solution (125I-IGF-II vs unlabeled IGF-II), immunoprecipitation with anti-IGFBP-2, one-site fit
T2 construct: also called unlabeled IGF-II
From the text: as §1, §2

T1 sequence (P05019 49-118 limits assumed): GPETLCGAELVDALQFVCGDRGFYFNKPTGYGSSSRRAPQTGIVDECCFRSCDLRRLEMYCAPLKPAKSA
T2 sequence (P01344 25-91 limits assumed): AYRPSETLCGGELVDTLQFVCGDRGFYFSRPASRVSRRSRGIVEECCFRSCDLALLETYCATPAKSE

B1: HBD-IGFBP-2 mutant (179PKKLRP184 mutated to 179PNNLAP184) (other)
chain: EVLFRCPPCTPERLAACGPPPVAPPAAVAAVAGGARMPCAELVREPGCGCCSVCARLEGEACGVYTPRCGQGLRCYPHPGSELPLQALVMGEGTCEKRRDAEYGASPEQVADNGDDHSEGGLVENHVDSTMNMLGGGGSAGRKPLKSGMKELAVFREKVTEQHRQMGKGGKHHLGLEEPNNLAPPPARTPCQQELDQVLERISTMRLPDERGPLEHLYSLHIPNCDKHGLYNLKQCKMSLNGQRGECWCVNPNTGKLIQGAPTIRGDPECHLFYNEQQEARGVHTQRMQ
notes: Positions are as printed; also called HBD modified IGFBP-2; PCS3
Kd [1]: 1.45 nM
Kd [2]: 0.52 nM
